# How the values were obtained:
# Experiment in all cases: cell-based or functional assay
# [1] = target: Env of HIV-1 pseudovirus 1054_07_TC4_1499 (HIV-1)
# [2] = target: Env of HIV-1 pseudovirus SC05_8C11_2344 (HIV-1)
# [3] = target: Env of HIV-1 pseudovirus Q461.e2 (HIV-1)
# [4] = target: Env of HIV-1 pseudovirus ZM214M.PL15 (HIV-1)
# [5] = target: Env of HIV-1 pseudovirus Du422.1 (HIV-1)
# [6] = target: Env of HIV-1 pseudovirus Q23.17 (HIV-1)
# [7] = target: Env of HIV-1 pseudovirus 246F C1G (HIV-1)
# [8] = target: Env of HIV-1 pseudovirus Ce0682_E4 (HIV-1)
# [9] = target: Env of HIV-1 pseudovirus Q259.d2.17 (HIV-1)
# [10] = target: Env of HIV-1 pseudovirus T257-31 (HIV-1)
# [11] = target: Env of HIV-1 pseudovirus Q769.d22 (HIV-1)
# [12] = target: Env of HIV-1 pseudovirus HIV-0013095-2.11 (HIV-1)
# [13] = target: HIV-1 Env pseudovirus THRO4156.18 (HIV-1)
# [14] = target: HIV-1 Env pseudovirus 1012_11_TC21_3257 (HIV-1)
# [15] = target: HIV-1 Env pseudovirus SC05_8C11_2344 (HIV-1)
# [16] = target: HIV-1 Env pseudovirus MS208.A1 (HIV-1)
# [17] = target: HIV-1 Env pseudovirus 7030102001E5(Rev-) (HIV-1)
# [18] = target: HIV-1 Env pseudovirus Q23.17 (HIV-1)
# [19] = target: HIV-1 Env pseudovirus QH0692.42 (HIV-1)
# [20] = target: HIV-1 Env pseudovirus Q769.d22 (HIV-1)
# [21] = target: HIV-1 Env pseudovirus Du422.1 (HIV-1)
# [22] = target: HIV-1 Env pseudovirus CNE20 (HIV-1)
# [23] = target: HIV-1 Env pseudovirus ZM247v1(Rev-) (HIV-1)
# [24] = target: HIV-1 Env pseudovirus 1006_11_C3_1601 (HIV-1)
# [25] = target: HIV-1 Env pseudovirus Ce2060_G9 (HIV-1)
# [26] = target: HIV-1 Env pseudovirus CNE52 (HIV-1)
substance,measurement,setting,value
PG16 (antibody),IC50,[1],> 50 µg/mL
same,IC80,[1],> 50 µg/mL
same,IC50,[2],0.07 µg/mL
same,IC80,[2],1.62 µg/mL
same,IC50,[3],1.75 µg/mL
same,IC80,[3],> 50 µg/mL
same,IC50,[4],> 50 µg/mL
same,IC80,[4],> 50 µg/mL
same,IC50,[5],0.261 µg/mL
same,IC80,[5],33.8 µg/mL
same,IC50,[6],0.008 µg/mL
same,IC80,[6],0.043 µg/mL
same,IC50,[7],> 50 µg/mL
same,IC80,[7],> 50 µg/mL
same,IC50,[8],0.026 µg/mL
same,IC80,[8],0.202 µg/mL
same,IC50,[9],0.065 µg/mL
same,IC80,[9],45.9 µg/mL
same,IC50,[10],0.007 µg/mL
same,IC80,[10],0.021 µg/mL
same,IC50,[11],0.005 µg/mL
same,IC80,[11],0.018 µg/mL
same,IC50,[12],0.002 µg/mL
same,IC80,[12],0.006 µg/mL
N49P11 (antibody),IC50,[13],1.84 µg/mL
same,IC80,[13],10.4 µg/mL
same,MPI,[13],100
same,IC50,[14],10.6 µg/mL
same,IC80,[14],29.3 µg/mL
same,MPI,[14],100
same,IC50,[15],5.42 µg/mL
same,IC80,[15],20.5 µg/mL
same,MPI,[15],100
same,IC50,[16],0.259 µg/mL
same,IC80,[16],1.94 µg/mL
same,MPI,[16],100
same,IC50,[17],0.635 µg/mL
same,IC80,[17],2.29 µg/mL
same,MPI,[17],100
same,IC50,[18],0.034 µg/mL
same,IC80,[18],0.254 µg/mL
same,MPI,[18],100
same,IC50,[19],0.55 µg/mL
same,IC80,[19],2.65 µg/mL
same,MPI,[19],100
same,IC50,[20],0.048 µg/mL
same,IC80,[20],0.308 µg/mL
same,MPI,[20],100
same,IC50,[21],8.81 µg/mL
same,IC80,[21],21.2 µg/mL
same,MPI,[21],100
same,IC50,[22],5.19 µg/mL
same,IC80,[22],22.6 µg/mL
same,MPI,[22],100
same,IC50,[23],7.48 µg/mL
same,IC80,[23],21.5 µg/mL
same,MPI,[23],100
same,IC50,[24],0.125 µg/mL
same,IC80,[24],0.487 µg/mL
same,MPI,[24],100
same,IC50,[25],3.33 µg/mL
same,IC80,[25],13.2 µg/mL
same,MPI,[25],100
same,IC50,[26],0.06 µg/mL
same,IC80,[26],0.307 µg/mL
same,MPI,[26],100
N49P18.1 (antibody),IC50,[13],> 50 µg/mL
same,IC80,[13],> 50 µg/mL
same,MPI,[13],19
same,IC50,[14],16.1 µg/mL
same,IC80,[14],> 50 µg/mL
same,MPI,[14],79
same,IC50,[15],17.3 µg/mL
same,IC80,[15],> 50 µg/mL
same,MPI,[15],79
same,IC50,[16],8.31 µg/mL
same,IC80,[16],33.3 µg/mL
same,MPI,[16],88
same,IC50,[17],6.35 µg/mL
same,IC80,[17],17.7 µg/mL
same,MPI,[17],98
same,IC50,[18],1.16 µg/mL
same,IC80,[18],6.93 µg/mL
same,MPI,[18],100
same,IC50,[19],> 50 µg/mL
same,IC80,[19],> 50 µg/mL
same,MPI,[19],43
same,IC50,[20],4.92 µg/mL
same,IC80,[20],18.3 µg/mL
same,MPI,[20],97
same,IC50,[21],21.5 µg/mL
same,IC80,[21],> 50 µg/mL
same,MPI,[21],75
same,IC50,[22],1.33 µg/mL
same,IC80,[22],6.36 µg/mL
same,MPI,[22],100
same,IC50,[23],10.9 µg/mL
same,IC80,[23],> 50 µg/mL
same,MPI,[23],79
same,IC50,[24],2.8 µg/mL
same,IC80,[24],9.66 µg/mL
same,MPI,[24],99
same,IC50,[25],> 50 µg/mL
same,IC80,[25],> 50 µg/mL
same,MPI,[25],37
same,IC50,[26],2.46 µg/mL
same,IC80,[26],6.65 µg/mL
same,MPI,[26],100
10E8 (antibody),IC50,[1],0.046 µg/mL
same,IC80,[1],0.305 µg/mL
same,IC50,[2],0.665 µg/mL
same,IC80,[2],2.74 µg/mL
same,IC50,[3],2.11 µg/mL
same,IC80,[3],> 10 µg/mL
same,IC50,[4],1.96 µg/mL
same,IC80,[4],> 10 µg/mL
same,IC50,[5],0.351 µg/mL
same,IC80,[5],1.88 µg/mL
same,IC50,[6],1.64 µg/mL
same,IC80,[6],7.04 µg/mL
same,IC50,[7],2.22 µg/mL
same,IC80,[7],9.94 µg/mL
same,IC50,[8],1.22 µg/mL
same,IC80,[8],7.71 µg/mL
same,IC50,[9],4.59 µg/mL
same,IC80,[9],> 10 µg/mL
same,IC50,[10],0.88 µg/mL
same,IC80,[10],5.78 µg/mL
same,IC50,[11],1.67 µg/mL
same,IC80,[11],10 µg/mL
same,IC50,[12],0.031 µg/mL
same,IC80,[12],0.213 µg/mL

# Reference: patent publication US20240117018A1
